Patent publication US20110144024A1

Key:
thrombin [1] = assay: SPR (Biacore 3000), 50 nM TM irradiated with 1.77 Gy over immobilized thrombin; reference is sham-irradiated (0 Gy) TM; 3 experiments
thrombin [2] = assay: SPR (Biacore 3000), 50 nM TM irradiated with 20 Gy over immobilized thrombin; reference is sham-irradiated (0 Gy) TM; 3 experiments
thrombin [3] = assay: cell-based or functional assay
thrombin [4] = assay: SPR (Biacore 3000), 50 nM TM irradiated with 80 Gy over immobilized thrombin; reference is sham-irradiated (0 Gy) TM; 3 experiments

Substance: recombinant full length human thrombomodulin (from UniProt P07204 19-515) (receptor)
- decrease of average RU value relative to baseline (0 Gy) (thrombin [1]): 13.2%
- decrease of average RU value relative to baseline (0 Gy) (thrombin [2]): 18.9%
- mean reduction in protein C activation, TM exposed to 1.77 Gy without MPO (thrombin [3]): 12%
- reduction in protein C activation, TM exposed to 1.77 Gy in the presence of MPO (thrombin [3]): 40%
- decrease of average RU value relative to baseline (0 Gy) (thrombin [4]): 21.6%
